Measurements reported in patent US20160168251A1 (MorphoSys, published 2016).

Key:
[1] = molecular target: T1, human NPRA on HEK293 cells bound to ANP (human, UniProt P01160 124-151); experiment: cell-based or functional assay
T1 sequence: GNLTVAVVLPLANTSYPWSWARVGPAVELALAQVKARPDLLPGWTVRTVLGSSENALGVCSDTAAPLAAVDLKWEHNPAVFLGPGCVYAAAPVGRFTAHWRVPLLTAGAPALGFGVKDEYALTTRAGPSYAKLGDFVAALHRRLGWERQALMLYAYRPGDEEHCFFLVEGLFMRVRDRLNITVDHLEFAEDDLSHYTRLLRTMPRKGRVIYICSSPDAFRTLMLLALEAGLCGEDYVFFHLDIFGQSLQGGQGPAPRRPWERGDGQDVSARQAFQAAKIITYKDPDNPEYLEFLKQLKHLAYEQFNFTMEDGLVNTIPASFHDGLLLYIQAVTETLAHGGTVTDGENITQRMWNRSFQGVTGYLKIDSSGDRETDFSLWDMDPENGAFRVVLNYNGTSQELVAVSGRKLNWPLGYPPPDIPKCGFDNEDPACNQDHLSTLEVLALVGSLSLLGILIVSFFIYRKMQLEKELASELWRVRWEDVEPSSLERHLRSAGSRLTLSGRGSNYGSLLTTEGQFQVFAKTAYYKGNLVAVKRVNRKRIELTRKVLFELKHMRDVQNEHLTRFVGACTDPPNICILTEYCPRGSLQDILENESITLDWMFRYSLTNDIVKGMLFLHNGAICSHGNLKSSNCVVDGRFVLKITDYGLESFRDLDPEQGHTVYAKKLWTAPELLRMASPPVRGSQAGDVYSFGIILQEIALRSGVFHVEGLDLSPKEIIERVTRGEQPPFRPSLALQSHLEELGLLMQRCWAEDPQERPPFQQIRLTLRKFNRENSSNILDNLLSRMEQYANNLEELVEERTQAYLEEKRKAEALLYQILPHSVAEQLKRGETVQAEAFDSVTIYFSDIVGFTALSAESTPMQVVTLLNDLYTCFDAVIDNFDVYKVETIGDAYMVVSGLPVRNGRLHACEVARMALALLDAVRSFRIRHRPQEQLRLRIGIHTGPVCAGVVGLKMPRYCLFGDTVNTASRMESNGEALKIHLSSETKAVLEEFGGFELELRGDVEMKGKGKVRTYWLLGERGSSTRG
T1 sequence (peptide): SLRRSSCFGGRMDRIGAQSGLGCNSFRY

[2] = molecular target: T2, human NPRA on HEK293 cells bound to BNP (human, UniProt P16860 103-134); experiment: cell-based or functional assay
T2 sequence: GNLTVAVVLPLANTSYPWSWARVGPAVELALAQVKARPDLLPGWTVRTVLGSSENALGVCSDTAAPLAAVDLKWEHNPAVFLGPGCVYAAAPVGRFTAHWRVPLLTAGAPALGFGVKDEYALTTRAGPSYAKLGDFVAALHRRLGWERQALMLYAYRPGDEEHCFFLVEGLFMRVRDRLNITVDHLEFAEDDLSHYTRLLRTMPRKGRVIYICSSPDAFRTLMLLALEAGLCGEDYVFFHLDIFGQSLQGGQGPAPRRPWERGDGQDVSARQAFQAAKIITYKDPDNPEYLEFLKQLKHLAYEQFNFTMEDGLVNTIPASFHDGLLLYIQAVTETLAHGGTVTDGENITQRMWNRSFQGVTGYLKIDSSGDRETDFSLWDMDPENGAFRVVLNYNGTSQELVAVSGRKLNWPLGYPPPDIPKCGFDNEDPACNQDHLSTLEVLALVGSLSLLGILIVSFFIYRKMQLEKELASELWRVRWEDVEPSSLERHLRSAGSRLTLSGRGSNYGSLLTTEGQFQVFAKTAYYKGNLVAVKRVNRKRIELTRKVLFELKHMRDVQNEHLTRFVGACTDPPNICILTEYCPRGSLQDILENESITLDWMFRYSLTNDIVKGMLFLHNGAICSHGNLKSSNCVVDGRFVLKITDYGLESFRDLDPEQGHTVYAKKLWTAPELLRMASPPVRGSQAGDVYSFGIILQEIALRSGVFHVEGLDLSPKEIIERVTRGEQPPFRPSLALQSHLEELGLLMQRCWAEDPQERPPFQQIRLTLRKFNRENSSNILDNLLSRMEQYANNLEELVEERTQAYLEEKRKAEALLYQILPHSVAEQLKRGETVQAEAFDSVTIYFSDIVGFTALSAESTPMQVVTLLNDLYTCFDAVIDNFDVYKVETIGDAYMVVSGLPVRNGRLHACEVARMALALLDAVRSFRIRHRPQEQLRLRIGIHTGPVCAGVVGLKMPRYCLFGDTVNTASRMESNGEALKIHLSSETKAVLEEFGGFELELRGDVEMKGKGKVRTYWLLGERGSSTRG
T2 sequence (peptide): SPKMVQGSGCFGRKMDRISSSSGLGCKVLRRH

[3] = molecular target: T1, human NPRA on HEK293 cells bound to ANP; experiment: FACS, HEK NPRA cells with ANP
[4] = molecular target: T3, human NPRA on HEK293 cells, without added ligand (human, UniProt P16066 33-1061); experiment: FACS, HEK NPRA cells without ligand
T3 construct: a signal peptide is not delimited; also called HEK NPRA cells; HEK hNPRA cells
T3 sequence: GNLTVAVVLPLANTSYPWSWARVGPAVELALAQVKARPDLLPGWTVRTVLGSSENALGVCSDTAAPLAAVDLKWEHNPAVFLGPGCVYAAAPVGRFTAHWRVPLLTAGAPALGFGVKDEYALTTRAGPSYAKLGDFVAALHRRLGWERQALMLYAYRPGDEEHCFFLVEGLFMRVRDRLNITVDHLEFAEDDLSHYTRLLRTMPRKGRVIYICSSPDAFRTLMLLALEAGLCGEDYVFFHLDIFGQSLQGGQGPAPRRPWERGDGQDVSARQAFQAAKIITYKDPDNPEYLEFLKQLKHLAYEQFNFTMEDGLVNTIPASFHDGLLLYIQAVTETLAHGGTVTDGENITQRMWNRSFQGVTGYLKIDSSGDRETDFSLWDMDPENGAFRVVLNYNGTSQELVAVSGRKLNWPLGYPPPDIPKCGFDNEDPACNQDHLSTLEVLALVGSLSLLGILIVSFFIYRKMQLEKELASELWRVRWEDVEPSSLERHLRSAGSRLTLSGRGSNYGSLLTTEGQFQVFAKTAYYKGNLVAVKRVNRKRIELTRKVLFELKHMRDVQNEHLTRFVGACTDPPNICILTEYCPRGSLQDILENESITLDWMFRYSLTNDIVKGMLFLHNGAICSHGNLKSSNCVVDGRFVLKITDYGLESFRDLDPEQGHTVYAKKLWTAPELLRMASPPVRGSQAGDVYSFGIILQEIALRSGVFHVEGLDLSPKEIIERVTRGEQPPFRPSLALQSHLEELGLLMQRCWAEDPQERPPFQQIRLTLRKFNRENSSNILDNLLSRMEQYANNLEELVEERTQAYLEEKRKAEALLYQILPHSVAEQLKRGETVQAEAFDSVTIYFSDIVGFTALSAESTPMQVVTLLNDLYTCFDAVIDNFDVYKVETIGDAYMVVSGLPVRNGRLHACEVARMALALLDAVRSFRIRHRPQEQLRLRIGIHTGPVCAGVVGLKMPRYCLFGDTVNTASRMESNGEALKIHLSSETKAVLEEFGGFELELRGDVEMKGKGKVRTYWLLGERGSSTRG

[5] = molecular target: T1, human NPRA on HEK293 cells bound to ANP; experiment: FACS titration on ANP bound HEK NPRA cells; ANP bound HEK NPRA cells
[6] = molecular target: T2, human NPRA on HEK293 cells bound to BNP; experiment: FACS titration on BNP bound HEK NPRA cells; BNP bound HEK NPRA cells
[7] = molecular target: T4, atrial natriuretic peptide (ANP), free (UniProt P01160 124-151, 125I label in the radioligand assays of Example 10); experiment: FACS competition: Fab pre-incubated with free ANP, then HEK NPRA cells loaded with 100 nM ANP
T4 construct: mature; also called free ANP
T4 peptide (looked up): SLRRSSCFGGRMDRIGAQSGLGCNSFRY

B1: 5064 Fab (Fab, V domains shown)
VH: QVQLQQSGPGLVKPSQTLSLTCAISGDSVSSRSASWSWIRQSPGRGLEWLGRIYYRSKWYNDYAVSVKSRITINPDTSKNQFSLQLNSVTPEDTAVYYCARMDVPSFRYFDVWGQGTLVTVSS
VL: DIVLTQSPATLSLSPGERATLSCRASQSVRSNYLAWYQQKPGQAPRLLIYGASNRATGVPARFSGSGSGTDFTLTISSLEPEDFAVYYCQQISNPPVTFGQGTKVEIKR
With B1 the “EC50 of ANP, cGMP production in HEK NPRA cells, with 400 nM Fab” value [1] was 1 nM, the “fold decrease of the EC50 of BNP (cGMP, 400 nM Fab)” value [2] was 2 fold and the “EC50 (read off the curve)” value [3] was ~100 nM. For the same binder, the binding result [4] was “no binding (tested: 20 µg/ml)”, the EC50 [5] was ≥ 100 nM and the EC50 [6] was ≥ 300 nM. B1: no binding (tested: 10000 nM) [7].
